This note sets out measurements from US6294648, “Protein having proteinase inhibitor activity” (Bayer Corporation, dated 2001).

Assay [1] deals with T1, Human neutrophil cathepsin G (human, UniProt P08311).
T1 sequence: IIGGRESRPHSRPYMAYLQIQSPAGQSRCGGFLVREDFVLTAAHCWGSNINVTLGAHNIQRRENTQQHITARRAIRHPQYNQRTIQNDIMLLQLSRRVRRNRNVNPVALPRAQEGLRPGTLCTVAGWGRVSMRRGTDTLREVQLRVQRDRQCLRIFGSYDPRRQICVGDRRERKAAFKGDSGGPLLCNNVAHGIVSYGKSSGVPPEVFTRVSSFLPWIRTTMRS
Nature of the assay: enzyme inhibition; 30 min preincubation at 37 C; Suc-AAPF-AMC hydrolysis by fluorescence; Ki* corrected for substrate. The method, then: (§1) The BTL.009 concentration was determined by amino acid analysis. The concentration of human neutrophil elastase, cathepsin G, and proteinase 3 were based on the manufacturer's specifications. […] Hydrolysis of AMC-conjugated peptides was monitored on a Hitachi model F4500 fluorometer (excitation=370 nm, emission=432 nm) over the first 2 minutes of the reaction. Ki* values were determined from plots of fractional rate versus inhibitor concentration, which were fit by nonlinear regression analysis (Enzifitter™ by Bio soft, Cambridge UK) as described (44). Ki values were obtained by correction for the effect of substrate as described (44).

Assay [2] deals with Human neutrophil elastase (human, UniProt P08246). Briefly: enzyme inhibition; 30 min preincubation at 37 C; Suc-AAPV-AMC hydrolysis by fluorescence; Ki* corrected for substrate. The method, then: as §1
For assay [3], the target named is T2, Human neutrophil proteinase 3 (human, UniProt P24158).
T2 sequence: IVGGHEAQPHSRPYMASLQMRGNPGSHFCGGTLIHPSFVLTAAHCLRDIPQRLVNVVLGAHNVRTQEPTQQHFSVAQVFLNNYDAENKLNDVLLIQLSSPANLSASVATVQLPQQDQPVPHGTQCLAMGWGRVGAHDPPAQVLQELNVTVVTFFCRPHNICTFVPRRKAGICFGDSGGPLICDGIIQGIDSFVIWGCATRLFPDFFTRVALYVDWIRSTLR
The assay is described as above. The method, then:
as §1

B1: BTL.009 (other)
chain: KQDVCEMPKETGPCLAYFLHWWYDKKDNTCSMFVYGGCQGNNNNFQSKANCLNTC
Regarding B1, the values for the Ki in assay [1], in assay [2] and in assay [3] were 1800 nM, 8 nM and 190 nM, respectively.
